Laboratory results reported in publication PMC12416549 (2024).

T1: TNFR1 (Homo sapiens, UniProt P19438)
T1 chain: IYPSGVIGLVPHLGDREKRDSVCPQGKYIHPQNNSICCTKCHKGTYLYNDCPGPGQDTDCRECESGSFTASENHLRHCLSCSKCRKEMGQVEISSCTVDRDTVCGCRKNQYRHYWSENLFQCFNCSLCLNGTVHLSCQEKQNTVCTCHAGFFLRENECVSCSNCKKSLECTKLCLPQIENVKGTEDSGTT


Target: T1, TNFR1
Assay: yeast display SC50

Binder	apparent Kd (screen) [nM]
Y101A (designed binder) SMEEEVEKAAKEYEKKKKEAIEKHLEKLKAKDKEAAERFLKELEEAAKEYAKDEAKTMSEEEAKRRAKKYKEKVLLSELSEEEQKEIKEAEEKLVRTILKAVEEAAK	0.405
E22L (designed binder) SMEEEVEKAAKEYEKKKKEAILKHLEKLKAKDKEAAERFLKELEEAAKEYAKDEAKTMSEEEAKRRAKKYKEKVLLSELSEEEQKEIKEAEEKLVRTILKYVEEAAK	0.869
K69C (designed binder) SMEEEVEKAAKEYEKKKKEAIEKHLEKLKAKDKEAAERFLKELEEAAKEYAKDEAKTMSEEEAKRRAKCYKEKVLLSELSEEEQKEIKEAEEKLVRTILKYVEEAAK	2.48
M2P (designed binder) SPEEEVEKAAKEYEKKKKEAIEKHLEKLKAKDKEAAERFLKELEEAAKEYAKDEAKTMSEEEAKRRAKKYKEKVLLSELSEEEQKEIKEAEEKLVRTILKYVEEAAK	0.49
K16P (designed binder) SMEEEVEKAAKEYEKPKKEAIEKHLEKLKAKDKEAAERFLKELEEAAKEYAKDEAKTMSEEEAKRRAKKYKEKVLLSELSEEEQKEIKEAEEKLVRTILKYVEEAAK	18.3
K93P (designed binder) SMEEEVEKAAKEYEKKKKEAIEKHLEKLKAKDKEAAERFLKELEEAAKEYAKDEAKTMSEEEAKRRAKKYKEKVLLSELSEEEQKEIKEAEEPLVRTILKYVEEAAK	8.56
R65Q (designed binder) SMEEEVEKAAKEYEKKKKEAIEKHLEKLKAKDKEAAERFLKELEEAAKEYAKDEAKTMSEEEAKQRAKKYKEKVLLSELSEEEQKEIKEAEEKLVRTILKYVEEAAK	0.304
K68A (designed binder) SMEEEVEKAAKEYEKKKKEAIEKHLEKLKAKDKEAAERFLKELEEAAKEYAKDEAKTMSEEEAKRRAAKYKEKVLLSELSEEEQKEIKEAEEKLVRTILKYVEEAAK	1.05
K93M (designed binder) SMEEEVEKAAKEYEKKKKEAIEKHLEKLKAKDKEAAERFLKELEEAAKEYAKDEAKTMSEEEAKRRAKKYKEKVLLSELSEEEQKEIKEAEEMLVRTILKYVEEAAK	0.718
K64N (designed binder) SMEEEVEKAAKEYEKKKKEAIEKHLEKLKAKDKEAAERFLKELEEAAKEYAKDEAKTMSEEEANRRAKKYKEKVLLSELSEEEQKEIKEAEEKLVRTILKYVEEAAK	0.653
E42Q (designed binder) SMEEEVEKAAKEYEKKKKEAIEKHLEKLKAKDKEAAERFLKQLEEAAKEYAKDEAKTMSEEEAKRRAKKYKEKVLLSELSEEEQKEIKEAEEKLVRTILKYVEEAAK	9.41
E12G (designed binder) SMEEEVEKAAKGYEKKKKEAIEKHLEKLKAKDKEAAERFLKELEEAAKEYAKDEAKTMSEEEAKRRAKKYKEKVLLSELSEEEQKEIKEAEEKLVRTILKYVEEAAK	0.49
S1N (designed binder) NMEEEVEKAAKEYEKKKKEAIEKHLEKLKAKDKEAAERFLKELEEAAKEYAKDEAKTMSEEEAKRRAKKYKEKVLLSELSEEEQKEIKEAEEKLVRTILKYVEEAAK	0.593
A47S (designed binder) SMEEEVEKAAKEYEKKKKEAIEKHLEKLKAKDKEAAERFLKELEEASKEYAKDEAKTMSEEEAKRRAKKYKEKVLLSELSEEEQKEIKEAEEKLVRTILKYVEEAAK	2.05
K41M (designed binder) SMEEEVEKAAKEYEKKKKEAIEKHLEKLKAKDKEAAERFLMELEEAAKEYAKDEAKTMSEEEAKRRAKKYKEKVLLSELSEEEQKEIKEAEEKLVRTILKYVEEAAK	0.446
L79S (designed binder) SMEEEVEKAAKEYEKKKKEAIEKHLEKLKAKDKEAAERFLKELEEAAKEYAKDEAKTMSEEEAKRRAKKYKEKVLLSESSEEEQKEIKEAEEKLVRTILKYVEEAAK	2.73

Next, values leading:

apparent Kd (screen) [nM]	Binder
0.446	K88N (designed binder) SMEEEVEKAAKEYEKKKKEAIEKHLEKLKAKDKEAAERFLKELEEAAKEYAKDEAKTMSEEEAKRRAKKYKEKVLLSELSEEEQKEINEAEEKLVRTILKYVEEAAK
2.73	V102I (designed binder) SMEEEVEKAAKEYEKKKKEAIEKHLEKLKAKDKEAAERFLKELEEAAKEYAKDEAKTMSEEEAKRRAKKYKEKVLLSELSEEEQKEIKEAEEKLVRTILKYIEEAAK
0.718	K68R (designed binder) SMEEEVEKAAKEYEKKKKEAIEKHLEKLKAKDKEAAERFLKELEEAAKEYAKDEAKTMSEEEAKRRARKYKEKVLLSELSEEEQKEIKEAEEKLVRTILKYVEEAAK
0.593	K71H (designed binder) SMEEEVEKAAKEYEKKKKEAIEKHLEKLKAKDKEAAERFLKELEEAAKEYAKDEAKTMSEEEAKRRAKKYHEKVLLSELSEEEQKEIKEAEEKLVRTILKYVEEAAK
10.4	A10F (designed binder) SMEEEVEKAFKEYEKKKKEAIEKHLEKLKAKDKEAAERFLKELEEAAKEYAKDEAKTMSEEEAKRRAKKYKEKVLLSELSEEEQKEIKEAEEKLVRTILKYVEEAAK
0.49	K33A (designed binder) SMEEEVEKAAKEYEKKKKEAIEKHLEKLKAKDAEAAERFLKELEEAAKEYAKDEAKTMSEEEAKRRAKKYKEKVLLSELSEEEQKEIKEAEEKLVRTILKYVEEAAK
3	S80W (designed binder) SMEEEVEKAAKEYEKKKKEAIEKHLEKLKAKDKEAAERFLKELEEAAKEYAKDEAKTMSEEEAKRRAKKYKEKVLLSELWEEEQKEIKEAEEKLVRTILKYVEEAAK
0.593	E81Q (designed binder) SMEEEVEKAAKEYEKKKKEAIEKHLEKLKAKDKEAAERFLKELEEAAKEYAKDEAKTMSEEEAKRRAKKYKEKVLLSELSQEEQKEIKEAEEKLVRTILKYVEEAAK
2.73	E72S (designed binder) SMEEEVEKAAKEYEKKKKEAIEKHLEKLKAKDKEAAERFLKELEEAAKEYAKDEAKTMSEEEAKRRAKKYKSKVLLSELSEEEQKEIKEAEEKLVRTILKYVEEAAK
1.54	A106T (designed binder) SMEEEVEKAAKEYEKKKKEAIEKHLEKLKAKDKEAAERFLKELEEAAKEYAKDEAKTMSEEEAKRRAKKYKEKVLLSELSEEEQKEIKEAEEKLVRTILKYVEEATK
0.956	K100N (designed binder) SMEEEVEKAAKEYEKKKKEAIEKHLEKLKAKDKEAAERFLKELEEAAKEYAKDEAKTMSEEEAKRRAKKYKEKVLLSELSEEEQKEIKEAEEKLVRTILNYVEEAAK
0.0802	T57Y (designed binder) SMEEEVEKAAKEYEKKKKEAIEKHLEKLKAKDKEAAERFLKELEEAAKEYAKDEAKYMSEEEAKRRAKKYKEKVLLSELSEEEQKEIKEAEEKLVRTILKYVEEAAK
2.48	S77G (designed binder) SMEEEVEKAAKEYEKKKKEAIEKHLEKLKAKDKEAAERFLKELEEAAKEYAKDEAKTMSEEEAKRRAKKYKEKVLLGELSEEEQKEIKEAEEKLVRTILKYVEEAAK
0.956	K27T (designed binder) SMEEEVEKAAKEYEKKKKEAIEKHLETLKAKDKEAAERFLKELEEAAKEYAKDEAKTMSEEEAKRRAKKYKEKVLLSELSEEEQKEIKEAEEKLVRTILKYVEEAAK
0.79	L79M (designed binder) SMEEEVEKAAKEYEKKKKEAIEKHLEKLKAKDKEAAERFLKELEEAAKEYAKDEAKTMSEEEAKRRAKKYKEKVLLSEMSEEEQKEIKEAEEKLVRTILKYVEEAAK
1.4	K68T (designed binder) SMEEEVEKAAKEYEKKKKEAIEKHLEKLKAKDKEAAERFLKELEEAAKEYAKDEAKTMSEEEAKRRATKYKEKVLLSELSEEEQKEIKEAEEKLVRTILKYVEEAAK
1.27	K52C (designed binder) SMEEEVEKAAKEYEKKKKEAIEKHLEKLKAKDKEAAERFLKELEEAAKEYACDEAKTMSEEEAKRRAKKYKEKVLLSELSEEEQKEIKEAEEKLVRTILKYVEEAAK
2.73	A46T (designed binder) SMEEEVEKAAKEYEKKKKEAIEKHLEKLKAKDKEAAERFLKELEETAKEYAKDEAKTMSEEEAKRRAKKYKEKVLLSELSEEEQKEIKEAEEKLVRTILKYVEEAAK
2.73	E45S (designed binder) SMEEEVEKAAKEYEKKKKEAIEKHLEKLKAKDKEAAERFLKELESAAKEYAKDEAKTMSEEEAKRRAKKYKEKVLLSELSEEEQKEIKEAEEKLVRTILKYVEEAAK
